Laboratory results: US20110243967A1
Values belong to the substance of their own block, whether it stands above or below them.

What was measured:
[1] = biological target: unloaded H-2 L^d on RMA-S L^d cells (mouse) (UniProt P01897); test: flow cytometry on RMA-S L^d cells, no peptide, bar '37 degrees'; mAb 30.5.7 then PE-labelled goat anti-mouse IgG
[2] = biological target: unloaded H-2 L^d on RMA-S L^d cells (mouse) (UniProt P01897); test: flow cytometry on RMA-S L^d cells, no peptide, bar '22 degrees' (the legend says 27°C); mAb 30.5.7 then PE-labelled goat anti-mouse IgG
[3] = biological target: serologically reactive H-2 L^d on RENCA cells (murine) (UniProt P01897); test: flow cytometry on unstimulated RENCA cells
[4] = biological target: QL9-loaded H-2 L^d (mouse) (UniProt P01897); test: flow cytometry on L^d cells loaded with graded peptide concentrations
[5] = biological target: p2Ca-loaded H-2 L^d (mouse) (UniProt P01897); test: as above
[6] = biological target: pMCMV-loaded H-2 L^d (mouse) (UniProt P01897)
Chain of pMCMV-loaded H-2 L^d (mouse) (P01897 25-309): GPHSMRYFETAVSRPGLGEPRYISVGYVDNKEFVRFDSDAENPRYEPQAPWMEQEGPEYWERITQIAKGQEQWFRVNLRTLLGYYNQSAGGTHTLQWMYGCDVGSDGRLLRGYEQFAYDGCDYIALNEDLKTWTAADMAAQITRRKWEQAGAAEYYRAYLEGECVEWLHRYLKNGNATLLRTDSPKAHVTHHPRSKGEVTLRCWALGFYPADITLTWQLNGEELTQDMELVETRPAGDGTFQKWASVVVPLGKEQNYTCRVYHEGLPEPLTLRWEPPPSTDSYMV

[7] = biological target: serologically reactive H-2 L^d on RENCA cells (murine) (UniProt P01897); test: flow cytometry on γ-IFN stimulated RENCA cells (5-50 units/ml)
[8] = biological target: SL9-loaded H-2 L^d (mouse) (UniProt P01897); test: flow cytometry on peptide-loaded RMA-S L^d cells; mAb 30.5.7 then PE-labelled goat anti-mouse IgG
Chain of SL9-loaded H-2 L^d (mouse) (P01897 25-309): as above

[9] = biological target: QL9-loaded H-2 L^d (mouse) (UniProt P01897); test: as above
[10] = biological target: p2Ca-loaded H-2 L^d (mouse) (UniProt P01897); test: as above
tum (mouse) = test: as above
[11] = biological target: QL9-loaded H-2 L^d (mouse) (UniProt P01897); test: flow cytometry, serial dilutions on QL9-loaded RMA-S L^d cells, detection with H57-FITC
[12] = biological target: p2Ca-loaded H-2 L^d (mouse) (UniProt P01897); test: competition with constant FITC-30.5.7 Fab on peptide-loaded RMA-S L^d cells, flow cytometry
[13] = biological target: QL9-loaded H-2 L^d (mouse) (UniProt P01897); test: flow cytometry on RMA-S L^d cells loaded with 100 µM peptide; two-fold dilutions of soluble monovalent 2C TCR, detected with H57-FITC
[14] = biological target: p2Ca-loaded H-2 L^d (mouse) (UniProt P01897); test: flow cytometry, serial dilutions on p2Ca-loaded RMA-S L^d cells, detection with H57-FITC
[15] = biological target: SL9-loaded H-2 L^d (mouse) (UniProt P01897); test: flow cytometry, direct saturation of FITC-30.5.7 Fab on peptide-loaded RMA-S L^d cells
[16] = biological target: QL9-loaded H-2 L^d (mouse) (UniProt P01897); test: as above
[17] = biological target: p2Ca-loaded H-2 L^d (mouse) (UniProt P01897); test: as above
[18] = biological target: pMCMV-loaded H-2 L^d (mouse) (UniProt P01897); remark: listed apart in the source
[19] = biological target: SIY-loaded H-2 K^bm3 (mouse); test: flow cytometry on peptide-loaded T2 K^bm3 cells

Chain of unloaded H-2 L^d on RMA-S L^d cells (mouse) (P01897 25-309): as above
Chain of soluble divalent 2C TCR/Ig (A2KF29 whole entry, looked up, tested part not stated): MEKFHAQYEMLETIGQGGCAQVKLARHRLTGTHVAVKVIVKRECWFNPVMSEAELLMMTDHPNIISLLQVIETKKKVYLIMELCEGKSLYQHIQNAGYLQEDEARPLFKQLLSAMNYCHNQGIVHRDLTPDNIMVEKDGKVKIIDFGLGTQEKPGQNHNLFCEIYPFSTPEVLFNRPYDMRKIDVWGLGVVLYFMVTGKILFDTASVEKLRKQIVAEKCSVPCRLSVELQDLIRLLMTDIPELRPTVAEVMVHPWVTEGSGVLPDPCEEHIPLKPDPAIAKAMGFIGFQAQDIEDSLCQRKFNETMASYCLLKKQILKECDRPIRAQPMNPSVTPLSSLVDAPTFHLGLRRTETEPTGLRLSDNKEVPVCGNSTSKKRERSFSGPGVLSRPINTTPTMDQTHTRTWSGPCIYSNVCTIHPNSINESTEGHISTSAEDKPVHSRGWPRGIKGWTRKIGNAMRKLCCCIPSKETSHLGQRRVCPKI

Substance: mAb 30.5.7 (antibody)
Mean Channel Fluorescence [1]: 60
Mean Channel Fluorescence [2]: 347
MCF [3]: 500
MCF [4]: 3000
MCF [5]: 3000
Mean Channel Fluorescence (gp 70 (mouse)): 677
Mean Channel Fluorescence [6]: 648
MCF [7]: 2670 to 3040
Mean Channel Fluorescence [8]: 556
Mean Channel Fluorescence [9]: 688
Mean Channel Fluorescence [10]: 693
Mean Channel Fluorescence (tum (mouse)): 578

concentration required to detect binding [11]: > 100 nM
Kapp [12]: > 2000 nM
Kd [12]: > 2000 nM
EC50 (read off the curve) [13]: 300 nM
concentration required to detect binding [14]: > 3000 nM
Substance: soluble monovalent 2C TCR

Substance: FITC-labeled 30.5.7 Fab
Kd [15]: 4.8 to 6.4 nM
Kd [16]: 12.2 nM
Kd [17]: 5.8 nM
Kd [18]: 4.8 nM

MCF [19]: 36
Substance: soluble divalent 2C TCR/Ig (from UniProt A2KF29)
